A word on the EC50: it is the concentration at which the effect is half-maximal. By IC50 is commonly meant the point on the concentration scale where inhibition reaches its midpoint. Read a low IC50 as inhibition by little substance.

In test [1] the target is T1, human PD-1 on engineered CHO-S cells (W305-CHO-S.hPro1.C6) (human, UniProt Q15116 25-288).
T1 construct: whole, on cells; also called human PD-1 engineered cells; PD-1+ cells
Put plainly: FACS on human PD-1 engineered cells. The procedure:
(§1) Engineered human PD-1 expressing cells W305-CHO-S.hPro1.C6 were seeded at 1×10⁵ cells/well in U-bottom 96-well plates (COSTAR 3799). Antibodies with 3.16-fold titration in 1% BSA DPBS from 200 nM to 0.002 nM were added to the cells. The plates were incubated at 4° C. for 1 hour. After wash, […] 1:125 diluted PE-labeled goat anti-human antibody (Jackson 109-115-098) was added to each well and the plates were incubated at 4° C. for 1 hour. The binding of the antibodies onto the cells was tested by flow cytometry and the mean fluorescence intensity (MFI) was analyzed by FlowJo.

Test [2] addresses T1, human PD-1 on engineered CHO-S cells …. Put plainly: FACS competition: antibody titrated against human PD-L1 binding to PD-1; falling curve, half-maximal value labelled EC50 on the sheet. The method, then: In order to test whether the bispecific antibodies could block hPD-L1 binding to hPD-1 protein, a competitive FACS was conducted. […] Plates were incubated at 4° C. for 1 hour. After wash, the binding of W315-hPro1.ECD.mFc to cell expressive human PD-1 was detected by FITC-labeled goat anti-mouse antibody (abcam 98716 1:125). The competition binding of antibodies to the cells was tested by flow cytometry and the mean fluorescence intensity (MFI) was analyzed by FlowJo.

Test [3] has as its target T2, human CTLA-4 on engineered 293F cells (W316-293F.hPro1.FL) (human, UniProt P16410 36-223).
T2 construct: whole, on cells; also called human CTLA-4 engineered cells; CTLA-4+ cells
Put plainly: FACS on human CTLA-4 engineered cells. The procedure: (§2) 3.16-fold titrated Abs with 1% BSA DPBS from 200 nM to 0.002 nM were added to the cells. Plates were incubated at 4° C. for 1 hour. After wash, […] 1:150 diluted PE-labeled goat anti-human antibody (Jackson 109-115-098) was added to each well and the plates were incubated at 4° C. for 1 hour. The binding of the antibodies onto the cells was tested by flow cytometry and the mean fluorescence intensity (MFI) was analyzed by FlowJo.

Test [4] deals with T1, human PD-1 on engineered CHO-S cells …. Put plainly: FACS on human PD-1 engineered cells. The procedure:
as §1
This is another data set of the same source.

Test [5] concerns the target T2, human CTLA-4 on engineered 293F cells …. Put plainly: FACS binding to human CTLA-4 engineered cells. The method, then: as §2
Test [6] has as its target T1, human PD-1 on engineered CHO-S cells …. Put plainly: FACS binding to human PD-1 engineered cells. The method, then: as §1
For orientation: In flow cytometry, cells or beads pass a laser one at a time.

T1 sequence (Q15116 25-288, change not shown): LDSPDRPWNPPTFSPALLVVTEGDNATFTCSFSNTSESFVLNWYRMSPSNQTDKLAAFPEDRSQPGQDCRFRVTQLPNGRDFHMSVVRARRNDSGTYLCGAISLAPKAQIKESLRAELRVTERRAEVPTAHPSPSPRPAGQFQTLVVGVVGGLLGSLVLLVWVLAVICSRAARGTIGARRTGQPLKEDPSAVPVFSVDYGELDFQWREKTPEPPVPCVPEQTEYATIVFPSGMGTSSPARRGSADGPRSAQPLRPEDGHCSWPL
T2 sequence (P16410 36-223, change not shown): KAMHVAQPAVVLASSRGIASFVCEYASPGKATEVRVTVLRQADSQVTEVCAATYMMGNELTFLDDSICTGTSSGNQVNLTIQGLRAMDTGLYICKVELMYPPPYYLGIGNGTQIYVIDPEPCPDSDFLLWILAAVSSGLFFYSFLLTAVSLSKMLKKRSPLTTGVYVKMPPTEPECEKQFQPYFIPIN

B1: U6T1.G19R.IgG4, bispecific anti-PD-1 x CTLA-4 (bispecific antibody)
heavy: EVQLLESGGGLVQPGGSLRLSCAASGFTFSSHAMSWVRQAPGKGLEWVSTITGGGGSIYYADSVKGRFTISRDNSKNTLYLQMNSLRAEDTAVYYCAKNRAGEGYFDYWGQGTLVTVLEDLKNVFPPEVAVFEPSEAEISHTQKATLVCLATGFYPDHVELSWWVNGKEVHSGVCTDPQPLKEQPALQDSRYALSSRLRVSATFWQNPRNHFRCQVQFYGLSENDEWTQDRAKPVTQIVSAEAWGRYGPPCPPCPAPEFLGGPSVFLFPPKPKDTLMISRTPEVTCVVVDVSQEDPEVQFNWYVDGVEVHNAKTKPREEQFNSTYRVVSVLTVLHQDWLNGKEYKCKVSNKGLPSSIEKTISKAKGQPREPQVYTLPPSQEEMTKNQVSLTCLVKGFYPSDIAVEWESNGQPENNYKTTPPVLDSDGSFFLYSRLTVDKSRWQEGNVFSCSVMHEALHNHYTQKSLSLSLGGGGGSGGGGSGGGGSGGGGSQVQLVESGGGVVQPGRSLRLSCAASGFTFSSYTMHWVRQAPGKGLEWVTFISYDGNNKYYADSVKGRFTISRDNSKNTLYLQMNSLRAEDTAIYYCARTGWLGPFDYWGQGTLVTVSSASTKGPSVFPLAPCSRSTSESTAALGCLVKDYFPEPVTVSWNSGALTSGVHTFPAVLQSSGLYSLSSVVTVPSSSLGTKTYTCNVDHKPSNTKVDKRV
light 1: SYELTQPLSVSVALGQTARITCGGDNIGNKDVHWYQQKPGQAPVLVIYRDSNRPSGIPEGFSGSNSGNTATLTISRAQAGDEADYYCQVWDSIWVFGGGTKLTVLPDIQNPDPAVYQLRDSKSSDKSVCLFTDFDSQTQVSQSKDSDVYITDKCVLDMRSMDFKSNSAVAWSQKSDFACANAFQNSIIPEDTFFPSPESS
light 2: not shown
notes: Symmetric tetravalent format G19R; also called U6T1 in G19R format
For B1, in test [1], a half-maximal effect (EC50) was put at 1.74 nM. Besides, in test [2], the half-inhibitory concentration (IC50) was 1.87 nM.

B2: U6T5.G19R.IgG4, bispecific anti-PD-1 x CTLA-4 (bispecific antibody)
heavy: EVQLLESGGGLVQPGGSLRLSCAASGFTFSSHAMSWVRQAPGKGLEWVSTITGGGGSIYYADSVKGRFTISRDNSKNTLYLQMNSLRAEDTAVYYCAKNRAGEGYFDYWGQGTLVTVLEDLKNVFPPEVAVFEPSEAEISHTQKATLVCLATGFYPDHVELSWWVNGKEVHSGVCTDPQPLKEQPALQDSRYALSSRLRVSATFWQNPRNHFRCQVQFYGLSENDEWTQDRAKPVTQIVSAEAWGRYGPPCPPCPAPEFLGGPSVFLFPPKPKDTLMISRTPEVTCVVVDVSQEDPEVQFNWYVDGVEVHNAKTKPREEQFNSTYRVVSVLTVLHQDWLNGKEYKCKVSNKGLPSSIEKTISKAKGQPREPQVYTLPPSQEEMTKNQVSLTCLVKGFYPSDIAVEWESNGQPENNYKTTPPVLDSDGSFFLYSRLTVDKSRWQEGNVFSCSVMHEALHNHYTQKSLSLSLGGGGGSGGGGSGGGGSGGGGSQVQLVQSGAEVKKPGSSVKVSCKASGYTFTNYFMNWVRQAPGQGLEWMGRVDPEQGRADYAEKFKKRVTITADKSTSTAYMELSSLRSEDTAVYYCARRAMDNYGFAYWGQGTLVTVSSASTKGPSVFPLAPCSRSTSESTAALGCLVKDYFPEPVTVSWNSGALTSGVHTFPAVLQSSGLYSLSSVVTVPSSSLGTKTYTCNVDHKPSNTKVDKRV
light 1: B1 light 1
light 2: EIVLTQSPDFQSVTPKEKVTITCSANSALSYMYWYQQKPDQSPKLWVHGTSNLASGVPSRFSGSGSGTDFTLTINSLEAEDAATYYCHHWSNTQWTFGGGTKVEIKRTVAAPSVFIFPPSDEQLKSGTASVVCLLNNFYPREAKVQWKVDNALQSGNSQESVTEQDSKDSTYSLSSTLTLSKADYEKHKVYACEVTHQGLSSPVTKSFNRGEC
notes: also called U6T5 in G19R format
For the molecule B2, the EC50 in test [3] turned out to be 8.23 nM; in test [4] it was 1.26 nM.

B3: U6T1.G25.IgG4, bispecific anti-PD-1 x CTLA-4 (bispecific antibody)
heavy: not shown
light 1: B1 light 1
light 2: not shown
notes: Symmetric tetravalent format G25; also called U6T1 in G25 format
B3: in test [1], the concentration for a half-maximal effect (EC50) was 1.65 nM. In test [2], this molecule yielded an IC50 of 1.96 nM.

B4: U6T5.G25R.IgG4, bispecific anti-PD-1 x CTLA-4 (bispecific antibody)
heavy: EVQLLESGGGLVQPGGSLRLSCAASGFTFSSHAMSWVRQAPGKGLEWVSTITGGGGSIYYADSVKGRFTISRDNSKNTLYLQMNSLRAEDTAVYYCAKNRAGEGYFDYWGQGTLVTVSSASTKGPSVFPLAPCSRSTSESTAALGCLVKDYFPEPVTVSWNSGALTSGVHTFPAVLQSSGLYSLSSVVTVPSSSLGTKTYTCNVDHKPSNTKVDKRVGGGGSGGGGSQVQLVQSGAEVKKPGSSVKVSCKASGYTFTNYFMNWVRQAPGQGLEWMGRVDPEQGRADYAEKFKKRVTITADKSTSTAYMELSSLRSEDTAVYYCARRAMDNYGFAYWGQGTLVTVLEDLKNVFPPEVAVFEPSEAEISHTQKATLVCLATGFYPDHVELSWWVNGKEVHSGVCTDPQPLKEQPALQDSRYALSSRLRVSATFWQNPRNHFRCQVQFYGLSENDEWTQDRAKPVTQIVSAEAWGRYGPPCPPCPAPEFLGGPSVFLFPPKPKDTLMISRTPEVTCVVVDVSQEDPEVQFNWYVDGVEVHNAKTKPREEQFNSTYRVVSVLTVLHQDWLNGKEYKCKVSNKGLPSSIEKTISKAKGQPREPQVYTLPPSQEEMTKNQVSLTCLVKGFYPSDIAVEWESNGQPENNYKTTPPVLDSDGSFFLYSRLTVDKSRWQEGNVFSCSVMHEALHNHYTQKSLSLSLGK
light 1: SYELTQPLSVSVALGQTARITCGGDNIGNKDVHWYQQKPGQAPVLVIYRDSNRPSGIPEGFSGSNSGNTATLTISRAQAGDEADYYCQVWDSIWVFGGGTKLTVLGQPKAAPSVTLFPPSSEELQANKATLVCLISDFYPGAVTVAWKADSSPVKAGVETTTPSKQSNNKYAASSYLSLTPEQWKSHKSYSCQVTHEGSTVEKTVAPTECS
light 2: EIVLTQSPDFQSVTPKEKVTITCSANSALSYMYWYQQKPDQSPKLWVHGTSNLASGVPSRFSGSGSGTDFTLTINSLEAEDAATYYCHHWSNTQWTFGGGTKVEIKPDIQNPDPAVYQLRDSKSSDKSVCLFTDFDSQTQVSQSKDSDVYITDKCVLDMRSMDFKSNSAVAWSQKSDFACANAFQNSIIPEDTFFPSPESS
notes: also called U6T5.G25R.uIgG4; U6T5 in G25R format
Turning to B4, the EC50 in test [3] was determined as 8.36 nM; in test [4] it was 1.56 nM.

B5: T4U6.G26R.IgG4, bispecific anti-CTLA-4 x PD-1 (bispecific antibody)
chain: QVQLQESGPGLVKPSETLSLTCSVTYHTITSGYDWTWIRKPPGKGMEWIGYISYSGNTNYNPSLKSRVTISRDTSKNQFFLKLSSVTAADTAVYYCASMMVPHYYVMDAWGQGTLVTVSSASTKGPSVFPLAPCSRSTSESTAALGCLVKDYFPEPVTVSWNSGALTSGVHTFPAVLQSSGLYSLSSVVTVPSSSLGTKTYTCNVDHKPSNTKVDKRVGGGGSGGGGSSYELTQPLSVSVALGQTARITCGGDNIGNKDVHWYQQKPGQAPVLVIYRDSNRPSGIPEGFSGSNSGNTATLTISRAQAGDEADYYCQVWDSIWVFGGGTKLTVLPDIQNPDPAVYQLRDSKSSDKSVCLFTDFDSQTQVSQSKDSDVYITDKCVLDMRSMDFKSNSAVAWSQKSDFACANAFQNSIIPEDTFFPSPESS
heavy: EVQLLESGGGLVQPGGSLRLSCAASGFTFSSHAMSWVRQAPGKGLEWVSTITGGGGSIYYADSVKGRFTISRDNSKNTLYLQMNSLRAEDTAVYYCAKNRAGEGYFDYWGQGTLVTVLEDLKNVFPPEVAVFEPSEAEISHTQKATLVCLATGFYPDHVELSWWVNGKEVHSGVCTDPQPLKEQPALQDSRYALSSRLRVSATFWQNPRNHFRCQVQFYGLSENDEWTQDRAKPVTQIVSAEAWGRYGPPCPPCPAPEFLGGPSVFLFPPKPKDTLMISRTPEVTCVVVDVSQEDPEVQFNWYVDGVEVHNAKTKPREEQFNSTYRVVSVLTVLHQDWLNGKEYKCKVSNKGLPSSIEKTISKAKGQPREPQVYTLPPSQEEMTKNQVSLTCLVKGFYPSDIAVEWESNGQPENNYKTTPPVLDSDGSFFLYSRLTVDKSRWQEGNVFSCSVMHEALHNHYTQKSLSLSLG
light: DIVMTQTPLSLSVTPGQPASISCRSSQSLLNSDGNTYLYWYLQKPGQSPQLLIYLVSKLGSGVPNRFSGSGSGTDFTLKISRVEAEDVGVYYCVQGTHDPWTFGGGTKVEIKRTVAAPSVFIFPPSDEQLKSGTASVVCLLNNFYPREAKVQWKVDNALQSGNSQESVTEQDSKDSTYSLSSTLTLSKADYEKHKVYACEVTHQGLSSPVTKSFNRGEC
notes: Light-heavy crossed chimeric Fab; first chain is T4-HC fused to U6-LC; T4 = WBP3162-1.146.19-z12; also called T4U6 antibody pair in G26R format
As for B5, the values for the EC50 in test [5] and in test [6] were 5.91 nM and 4.78 nM, respectively.
